Among the data in doi:10.1101/2022.07.14.500063 are fold reduction in pseudoviral neutralisation titre and fold reduction in pseudoviral neutralization titre against wild-type Delta values, retold here.

Assay [1] concerns the target Delta RBD+L455S (SARS-CoV-2) (UniProt P0DTC2).
The target in assay [2] is Delta RBD+E406Q (SARS-CoV-2) (UniProt P0DTC2).
The target of assay [3] is Delta RBD+E406D (SARS-CoV-2) (UniProt P0DTC2).
Assay [4] deals with Delta RBD+L455S (SARS-CoV-2) (UniProt P0DTC2). This is another data set of the same source.
For assay [5], the target named is Delta+L455F Spike on pseudotyped lentivirus (SARS-CoV-2) (UniProt P0DTC2).
The target of assay [6] is Delta+Y453F Spike on pseudotyped lentivirus (SARS-CoV-2) (UniProt P0DTC2).

Turning to casirivimab (REGN10933) (antibody), the fold reduction in pseudoviral neutralisation titre in assay [1] was determined as 65 fold; in assay [2] it was 12 fold; in assay [3], 2 fold. Besides, the fold reduction in pseudoviral neutralization titre against wild-type Delta in assay [4] was determined as 155 fold; in assay [5], 17 fold; in assay [6], 16 fold.
